Substitutions are numbered along the chain they refer to. “And” between values parts separate entries of the source, which are not always exact repeats. Equal values may be shown once.
B1: 38T3, 72A (protein, listed as Rattus norvegicus)
chain: AFDGTWKVDRNENYEKFMEKMGINVVKRKLGAHDNLKTTITQEGNKFTVKESSNFRNIDVVFELGVDFAYSAADGTELTGTWTMEGNKLVGKFKRVDNGKELIAVREISGNELIQTYTYEGVEAKRIFKKE
modifications: PEPTIDE (1)...(131) wild-type rat intestinal fatty acid binding protein
B2: 38V2, 72A (protein, listed as Rattus norvegicus)
chain: B1 chain with T38V
modifications: PEPTIDE (1)...(131) wild-type rat intestinal fatty acid binding protein
B3: 102Q, 72A (protein, listed as Rattus norvegicus)
chain: B1 chain with T38L, L102Q
modifications: PEPTIDE (1)...(131) wild-type rat intestinal fatty acid binding protein
B4: 38W1, 72A (protein, listed as Rattus norvegicus)
chain: B1 chain with T38W
modifications: PEPTIDE (1)...(131) wild-type rat intestinal fatty acid binding protein
B5: 38Y1, 72A (protein, listed as Rattus norvegicus)
chain: B1 chain with T38Y
modifications: PEPTIDE (1)...(131) wild-type rat intestinal fatty acid binding protein
B6: 40F2, L72A (protein, listed as Rattus norvegicus)
chain: B1 chain with T38L, I40F
modifications: PEPTIDE (1)...(131) wild-type rat intestinal fatty acid binding protein
B7: 40V1, L72A (protein, listed as Rattus norvegicus)
chain: B1 chain with T38L, I40V
modifications: PEPTIDE (1)...(131) wild-type rat intestinal fatty acid binding protein
B8: 40Y3, L72A (protein, listed as Rattus norvegicus)
chain: B1 chain with T38L, I40Y
modifications: PEPTIDE (1)...(131) wild-type rat intestinal fatty acid binding protein
B9: 47A1, L72A (protein, listed as Rattus norvegicus)
chain: B1 chain with T38L, F47A
modifications: PEPTIDE (1)...(131) wild-type rat intestinal fatty acid binding protein
B10: 47C3, L72A (protein, listed as Rattus norvegicus)
chain: B1 chain with T38L, F47C
modifications: PEPTIDE (1)...(131) wild-type rat intestinal fatty acid binding protein
B11: 47E3, L72A (protein, listed as Rattus norvegicus)
chain: B1 chain with T38L, F47E
modifications: PEPTIDE (1)...(131) wild-type rat intestinal fatty acid binding protein
B12: 102R, 72A (protein, listed as Rattus norvegicus)
chain: B1 chain with T38L, L102R
modifications: PEPTIDE (1)...(131) wild-type rat intestinal fatty acid binding protein
B13: 47H1, L72A (protein, listed as Rattus norvegicus)
chain: B1 chain with T38L, F47H
modifications: PEPTIDE (1)...(131) wild-type rat intestinal fatty acid binding protein
B14: 47I2, L72A (protein, listed as Rattus norvegicus)
chain: B1 chain with T38L, F47I
modifications: PEPTIDE (1)...(131) wild-type rat intestinal fatty acid binding protein
B15: 47L2, L72A (protein, listed as Rattus norvegicus)
chain: B1 chain with T38L, F47L
modifications: PEPTIDE (1)...(131) wild-type rat intestinal fatty acid binding protein
B16: 47M, 72A (protein, listed as Rattus norvegicus)
chain: B1 chain with T38L, F47M
modifications: PEPTIDE (1)...(131) wild-type rat intestinal fatty acid binding protein
B17: 47P1, L72A (protein, listed as Rattus norvegicus)
chain: B1 chain with T38L, F47P
modifications: PEPTIDE (1)...(131) wild-type rat intestinal fatty acid binding protein
B18: 102S, 72A (protein, listed as Rattus norvegicus)
chain: B1 chain with T38L, L102S
modifications: PEPTIDE (1)...(131) wild-type rat intestinal fatty acid binding protein
B19: 47R3, L72A (protein, listed as Rattus norvegicus)
chain: B1 chain with T38L, F47R
modifications: PEPTIDE (1)...(131) wild-type rat intestinal fatty acid binding protein
B20: 47S1, L72A (protein, listed as Rattus norvegicus)
chain: B1 chain with T38L, F47S
modifications: PEPTIDE (1)...(131) wild-type rat intestinal fatty acid binding protein
B21: 47T1, L72A (protein, listed as Rattus norvegicus)
chain: B1 chain with T38L, F47T
modifications: PEPTIDE (1)...(131) wild-type rat intestinal fatty acid binding protein
B22: 47V3, L72A (protein, listed as Rattus norvegicus)
chain: B1 chain with T38L, F47V
modifications: PEPTIDE (1)...(131) wild-type rat intestinal fatty acid binding protein
B23: 47Y2, L72A (protein, listed as Rattus norvegicus)
chain: B1 chain with T38L, F47Y
modifications: PEPTIDE (1)...(131) wild-type rat intestinal fatty acid binding protein

Assay: Probe fluorescence ratio response to linoleic acid relative to ADIFAB2
Format: binding
Settings: response relative to ADIFAB2
In short: (§1)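 Each fatty acid's response was expressed relative to ADIFAB2, the rI-FABP-L72A probe, as ΔR/ΔRreference. ΔR is the change in the background-corrected two-wavelength intensity ratio R=Fλ1/Fλ2 from its analyte-free baseline R0. Emission was read near about 420-480 nm for unbound and about 495-580 nm for FFA-bound probe.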

| Molecule | DR/DR LA |
| --- | --- |
| B1 | 1.58 |
| B2 | 1.70 |
| B3 | 0.66 |
| B4 | 2.41 |
| B5 | 1.82 |
| B6 | 0.90 |
| B7 | 1.24 |
| B8 | 0.50 |
| B9 | 0.58 |
| B10 | 0.37 |
| B11 | 1.23 |
| B12 | 0.60 |
| B13 | 0.74 |
| B14 | 1.22 |
| B15 | 1.21 |
| B16 | 1.18 and 1.183 |
| B17 | 0.59 |
| B18 | 0.45 |
| B19 | 0.64 |
| B20 | 0.66 |
| B21 | 0.77 |
| B22 | 1.04 |
| B23 | 1.40 |

Assay: Probe fluorescence ratio response to palmitic acid relative to ADIFAB2
Format: binding
Settings: response relative to ADIFAB2
In short: as §1

| Molecule | DR/DR PA |
| --- | --- |
| B1 | 1.02 |
| B2 | 1.50 |
| B3 | 0.30 |
| B4 | 1.55 |
| B5 | 1.52 |
| B6 | 0.80 |
| B7 | 0.91 |
| B8 | 0.29 |
| B9 | 0.30 |
| B10 | 0.23 |
| B11 | 1.06 |
| B12 | 0.25 |
| B13 | 0.43 |
| B14 | 0.92 |
| B15 | 0.90 |
| B16 | 0.97 and 0.966 |
| B17 | 0.26 |
| B18 | 0.18 |
| B19 | 0.30 |
| B20 | 0.34 |
| B21 | 0.46 |
| B22 | 0.78 |
| B23 | 1.17 |

Assay: Probe fluorescence ratio response to linolenic acid relative to ADIFAB2
Format: binding
Settings: response relative to ADIFAB2
In short: as §1

| Molecule | DR/DR LNA |
| --- | --- |
| B1 | 1.64 |
| B2 | 1.67 |
| B3 | 0.71 |
| B4 | 1.34 |
| B5 | 1.88 |
| B6 | 0.99 |
| B7 | 1.28 |
| B8 | 0.49 |
| B9 | 0.57 |
| B10 | 0.35 |
| B11 | 1.26 |
| B12 | 0.57 |
| B13 | 0.70 |
| B14 | 1.19 |
| B15 | 1.20 |
| B16 | 1.13 and 1.135 |
| B17 | 0.61 |
| B18 | 0.43 |
| B19 | 0.61 |
| B20 | 0.69 |
| B21 | 0.74 |
| B22 | 1.01 |
| B23 | 1.40 |

Assay: Probe fluorescence ratio response to arachidonic acid relative to ADIFAB2
Format: binding
Settings: Arachidonic acid; response relative to ADIFAB2
In short: as §1

| Molecule | DR/DR AA |
| --- | --- |
| B1 | 1.60 |
| B2 | 1.65 |
| B4 | 1.35 |
| B5 | 2.08 |
| B6 | 0.89 |
| B7 | 1.20 |
| B8 | 0.89 |
| B9 | 0.54 |
| B10 | 0.32 |
| B11 | 1.25 |
| B13 | 0.63 |
| B14 | 1.19 |
| B15 | 1.15 |
| B16 | 1.14 |
| B17 | 0.54 |
| B19 | 0.56 |
| B20 | 0.61 |
| B21 | 0.68 |
| B22 | 1.00 |
| B23 | 1.37 |

Same assay, conditions: arachidonic acid; response relative to ADIFAB2

| Molecule | DR/DR AA |
| --- | --- |
| B3 | 0.62 |
| B12 | 0.51 |
| B16 | 1.138 |
| B18 | 0.39 |

Assay: Probe fluorescence ratio response to oleic acid relative to ADIFAB2
Format: binding
Settings: response relative to ADIFAB2
In short: as §1

| Molecule | DR/DR OA |
| --- | --- |
| B1 | 1.55 |
| B2 | 1.75 |
| B3 | 0.60 |
| B4 | 1.58 |
| B5 | 1.72 |
| B6 | 0.90 |
| B7 | 1.21 |
| B8 | 0.48 |
| B9 | 0.59 |
| B10 | 0.35 |
| B11 | 1.25 |
| B12 | 0.56 |
| B13 | 0.67 |
| B14 | 1.15 |
| B15 | 1.20 |
| B16 | 1.17 and 1.168 |
| B17 | 0.57 |
| B18 | 0.43 |
| B19 | 0.62 |
| B20 | 0.64 |
| B21 | 0.74 |
| B22 | 1.01 |
| B23 | 1.42 |

Source: patent US20060257938A1, “Method of screening for drugs that block ligand binding to a lipid binding protein” (priority 2005, published 2006)
